Data on nine molecules can be found in US20150203577A1 (Chugai, published 2015).

Assay [1] deals with T1, mouse FcγRII extracellular domain, C-terminal His tag (mouse, UniProt P08101 30-210).
T1 construct: Whole entry named; also called mFcγRII; mFcgRII
T1 sequence: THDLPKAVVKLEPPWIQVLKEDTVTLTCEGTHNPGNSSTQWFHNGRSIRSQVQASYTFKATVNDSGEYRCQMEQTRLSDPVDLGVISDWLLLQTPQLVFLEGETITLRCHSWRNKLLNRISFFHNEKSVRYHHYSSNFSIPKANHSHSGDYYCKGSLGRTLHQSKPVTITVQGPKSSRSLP
As to the kind of experiment: SPR (Biacore T200), 1:1 fit. How it is done:
(§1) Each altered antibody was analyzed for its interaction with each Fcγ receptor prepared above using Biacore T100 (GE Healthcare Japan Corp.), Biacore T200 (GE Healthcare Japan Corp.), Biacore A100, or Biacore 4000. The running buffer used was HBS-EP+ (GE Healthcare Japan Corp.). The assay temperature was set to 25° C. The sensor chips used were chips prepared by immobilizing Protein L (ACTIGEN or BioVision) onto Series S Sensor Chip CM5 (GE Healthcare Japan Corp.) or Series S Sensor Chip CM4 (GE Healthcare Japan Corp.) by the amine coupling method.
(§2) In order to calculate the KD value of each altered antibody for FcγR, kinetic analysis was conducted according to the following method: first, the antibody of interest was captured onto any of these chips and allowed to interact with mFcγR diluted with a running buffer. For the obtained sensorgram, the assay results were globally fit into the 1:1 Langmuir binding model using Biacore Evaluation Software to calculate an association rate constant ka (L/mol/s) and a dissociation rate constant kd (1/s). From these values, the dissociation constant KD (mol/L) was calculated.
For orientation: SPR reads the build-up and loss of mass on a sensor chip optically.

In assay [2] the target is T2, mouse FcγRIII extracellular domain, C-terminal His tag (mouse, UniProt P08508 31-215).
T2 construct: Whole entry named; also called mFcγRIII; mFcgRIII
T2 chain: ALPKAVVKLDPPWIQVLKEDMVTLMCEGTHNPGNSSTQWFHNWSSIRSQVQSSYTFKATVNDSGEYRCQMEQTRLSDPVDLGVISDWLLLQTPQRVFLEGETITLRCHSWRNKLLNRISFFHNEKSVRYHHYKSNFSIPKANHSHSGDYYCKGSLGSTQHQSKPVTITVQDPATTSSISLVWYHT
As to the kind of experiment: SPR (Biacore T200), 1:1 fit. How it is done:
as §1, §2

Assay [3] has as its target T2, mouse FcγRIII extracellular domain, …. The assay can be described thus: SPR (Biacore T200); KD of H237-mIgG1/MRAL-k0 / KD of variant. On the procedure:
as §1, §2

B1: H237-MB526/MRAL-k0 (antibody, mouse IgG1, kappa)
heavy: QVQLQESGPGLVKPSETLSLTCAVSGHSISHDHAWSWVRQPPGEGLEWIGFISYSGITNYNPSLQGRVTISRDNSKNTLYLQMNSLRAEDTAVYYCARSLARTTAMDYWGEGTLVTVSSAKTTPPSVYPLAPGSAAQTNSMVTLGCLVKGYFPEPVTVTWNSGSLSSGVHTFPAVLQSDLYTLSSSVTVPSSTWPSETVTCNVAHPASSTKVDKKIVPRDCGCKPCICQPNEVEEVFIFPPKPKDVLTITLTPKVTCVVVDISKDDPEVQFSWFVDDVEVHTAQTQPREEQFNLTFRSVSELPIMHQDWLNGKEFKCRVNSAAFPAPIEKTISKTKGRPKAPQVYTIPPPKEQMAKDKVSLTCMITDFFPEDITVEWQWNGQPAENYKNTQPIMDTDGSYFVYSKLNVQKSNWEAGNTFTCSVLHEGLHNHHTEKSLSHSPGK
light: not shown
notes: copies: 2 + 2
In the case of B1, the Kd came to 0.904 nM in assay [1] and 33 nM in assay [2]. Moreover, the “relative mFcγRIII-binding activity (mIgG1 = 1)” value in assay [3] came out at 8.5 fold.

B2: H237-MB534/MRAL-k0 (antibody, mouse IgG1, kappa)
heavy: QVQLQESGPGLVKPSETLSLTCAVSGHSISHDHAWSWVRQPPGEGLEWIGFISYSGITNYNPSLQGRVTISRDNSKNTLYLQMNSLRAEDTAVYYCARSLARTTAMDYWGEGTLVTVSSAKTTPPSVYPLAPGSAAQTNSMVTLGCLVKGYFPEPVTVTWNSGSLSSGVHTFPAVLQSDLYTLSSSVTVPSSTWPSETVTCNVAHPASSTKVDKKIVPRDCGCKPCICQPNEVEEVFIFPPKPKDVLTITLTPKVTCVVVDISKDDPEVQFSWFVDDVEVHTAQTQPREEQFNLTFRSVSELPIMHQDWLNGKEFKCRVDSAAFPAPIERTISKTKGRPKAPQVYTIPPPKEQMAKDKVSLTCMITDFFPEDITVEWQWNGQPAENYKNTQPIMDTDGSYFVYSKLNVQKSNWEAGNTFTCSVLHEGLHNHHTEKSLSHSPGK
light: not shown
notes: copies: 2 + 2
Turning to B2, the figures for the Kd in assay [1] and in assay [2] were 0.499 nM and 8.34 nM, respectively. Besides, in assay [3], the “relative mFcγRIII-binding activity (mIgG1 = 1)” value was found to be 33.8 fold.

B3: H237-MB528/MRAL-k0 (antibody, mouse IgG1, kappa)
heavy: QVQLQESGPGLVKPSETLSLTCAVSGHSISHDHAWSWVRQPPGEGLEWIGFISYSGITNYNPSLQGRVTISRDNSKNTLYLQMNSLRAEDTAVYYCARSLARTTAMDYWGEGTLVTVSSAKTTPPSVYPLAPGSAAQTNSMVTLGCLVKGYFPEPVTVTWNSGSLSSGVHTFPAVLQSDLYTLSSSVTVPSSTWPSETVTCNVAHPASSTKVDKKIVPRDCGCKPCICQPNEVEEVFIFPPKPKDVLTITLTPKVTCVVVDISKDDPEVQFSWFVDDVEVHTAQTQPREEQFNLTFRSVSELPIMHQDWLNGKEFKCRVNSDAFPAPIEKTISKTKGRPKAPQVYTIPPPKEQMAKDKVSLTCMITDFFPEDITVEWQWNGQPAENYKNTQPIMDTDGSYFVYSKLNVQKSNWEAGNTFTCSVLHEGLHNHHTEKSLSHSPGK
light: not shown
notes: copies: 2 + 2
As to B3, the Kd in assay [1] turned out to be 0.56 nM; in assay [2] it was 19.3 nM. Also, in assay [3], the “relative mFcγRIII-binding activity (mIgG1 = 1)” value turned out to be 14.6 fold.

B4: H237-MB530/MRAL-k0 (antibody, mouse IgG1, kappa)
heavy: QVQLQESGPGLVKPSETLSLTCAVSGHSISHDHAWSWVRQPPGEGLEWIGFISYSGITNYNPSLQGRVTISRDNSKNTLYLQMNSLRAEDTAVYYCARSLARTTAMDYWGEGTLVTVSSAKTTPPSVYPLAPGSAAQTNSMVTLGCLVKGYFPEPVTVTWNSGSLSSGVHTFPAVLQSDLYTLSSSVTVPSSTWPSETVTCNVAHPASSTKVDKKIVPRDCGCKPCICQPNEVEEVFIFPPKPKDVLTITLTPKVTCVVVDISKDDPEVQFSWFVDDVEVHTAQTQPREEQFNSTFRSVSELPIMHQDWLNGKEFKCRVDSDAFPAPIEKTISKTKGRPKAPQVYTIPPPKEQMAKDKVSLTCMITDFFPEDITVEWQWNGQPAENYKNTQPIMDTDGSYFVYSKLNVQKSNWEAGNTFTCSVLHEGLHNHHTEKSLSHSPGK
light: not shown
notes: copies: 2 + 2
Consider B4, for which the dissociation constant (Kd) in assay [1] was determined as 0.337 nM; in assay [2], 35.1 nM. In assay [3], the “relative mFcγRIII-binding activity (mIgG1 = 1)” value amounted to 8 fold.

B5: H237-MB533/MRAL-k0 (antibody, mouse IgG1, kappa)
heavy: QVQLQESGPGLVKPSETLSLTCAVSGHSISHDHAWSWVRQPPGEGLEWIGFISYSGITNYNPSLQGRVTISRDNSKNTLYLQMNSLRAEDTAVYYCARSLARTTAMDYWGEGTLVTVSSAKTTPPSVYPLAPGSAAQTNSMVTLGCLVKGYFPEPVTVTWNSGSLSSGVHTFPAVLQSDLYTLSSSVTVPSSTWPSETVTCNVAHPASSTKVDKKIVPRDCGCKPCICQPNEVEEVFIFPPKPKDVLTITLTPKVTCVVVDISKDDPEVQFSWFVDDVEVHTAQTQPREEQFNLTFRSVSELPIMHQDWLNGKEFKCRVDSDAFPAPIEKTISKTKGRPKAPQVYTIPPPKEQMAKDKVSLTCMITDFFPEDITVEWQWNGQPAENYKNTQPIMDTDGSYFVYSKLNVQKSNWEAGNTFTCSVLHEGLHNHHTEKSLSHSPGK
light: not shown
notes: copies: 2 + 2
Regarding B5, the figures for the Kd in assay [1] and in assay [2] were 0.534 nM and 39 nM, respectively. Besides, the “relative mFcγRIII-binding activity (mIgG1 = 1)” value in assay [3] amounted to 7.2 fold.

B6: H237-MB532/MRAL-k0 (antibody, mouse IgG1, kappa)
heavy: QVQLQESGPGLVKPSETLSLTCAVSGHSISHDHAWSWVRQPPGEGLEWIGFISYSGITNYNPSLQGRVTISRDNSKNTLYLQMNSLRAEDTAVYYCARSLARTTAMDYWGEGTLVTVSSAKTTPPSVYPLAPGSAAQTNSMVTLGCLVKGYFPEPVTVTWNSGSLSSGVHTFPAVLQSDLYTLSSSVTVPSSTWPSETVTCNVAHPASSTKVDKKIVPRDCGCKPCICQPNEVEEVFIFPPKPKDVLTITLTPKVTCVVVDISKDDPEVQFSWFVDDVEVHTAQTQPREEQFNSTFRSVSELPIMHQDWLNGKEFKCRVNSDAFPAPIERTISKTKGRPKAPQVYTIPPPKEQMAKDKVSLTCMITDFFPEDITVEWQWNGQPAENYKNTQPIMDTDGSYFVYSKLNVQKSNWEAGNTFTCSVLHEGLHNHHTEKSLSHSPGK
light: not shown
notes: copies: 2 + 2
For B6, the dissociation constant (Kd) was found to be 0.639 nM in assay [1] and 45.4 nM in assay [2]. The “relative mFcγRIII-binding activity (mIgG1 = 1)” value in assay [3] worked out at 6.2 fold.

B7: H237-MB531/MRAL-k0 (antibody, mouse IgG1, kappa)
heavy: QVQLQESGPGLVKPSETLSLTCAVSGHSISHDHAWSWVRQPPGEGLEWIGFISYSGITNYNPSLQGRVTISRDNSKNTLYLQMNSLRAEDTAVYYCARSLARTTAMDYWGEGTLVTVSSAKTTPPSVYPLAPGSAAQTNSMVTLGCLVKGYFPEPVTVTWNSGSLSSGVHTFPAVLQSDLYTLSSSVTVPSSTWPSETVTCNVAHPASSTKVDKKIVPRDCGCKPCICQPNEVEEVFIFPPKPKDVLTITLTPKVTCVVVDISKDDPEVQFSWFVDDVEVHTAQTQPREEQFNSTFRSVSELPIMHQDWLNGKEFKCRVDSAAFPAPIERTISKTKGRPKAPQVYTIPPPKEQMAKDKVSLTCMITDFFPEDITVEWQWNGQPAENYKNTQPIMDTDGSYFVYSKLNVQKSNWEAGNTFTCSVLHEGLHNHHTEKSLSHSPGK
light: not shown
notes: copies: 2 + 2
B7: the Kd in assay [1] was 0.918 nM; in assay [2], 85 nM. The “relative mFcγRIII-binding activity (mIgG1 = 1)” value in assay [3] came out at 3.3 fold.

B8: H237-MB527/MRAL-k0 (antibody, mouse IgG1, kappa)
heavy: QVQLQESGPGLVKPSETLSLTCAVSGHSISHDHAWSWVRQPPGEGLEWIGFISYSGITNYNPSLQGRVTISRDNSKNTLYLQMNSLRAEDTAVYYCARSLARTTAMDYWGEGTLVTVSSAKTTPPSVYPLAPGSAAQTNSMVTLGCLVKGYFPEPVTVTWNSGSLSSGVHTFPAVLQSDLYTLSSSVTVPSSTWPSETVTCNVAHPASSTKVDKKIVPRDCGCKPCICQPNEVEEVFIFPPKPKDVLTITLTPKVTCVVVDISKDDPEVQFSWFVDDVEVHTAQTQPREEQFNLTFRSVSELPIMHQDWLNGKEFKCRVDSAAFPAPIEKTISKTKGRPKAPQVYTIPPPKEQMAKDKVSLTCMITDFFPEDITVEWQWNGQPAENYKNTQPIMDTDGSYFVYSKLNVQKSNWEAGNTFTCSVLHEGLHNHHTEKSLSHSPGK
light: not shown
notes: copies: 2 + 2
Turning to B8, the equilibrium dissociation constant (Kd) in assay [1] was found to be 0.768 nM; in assay [2], 51 nM. Further, the “relative mFcγRIII-binding activity (mIgG1 = 1)” value in assay [3] worked out at 5.5 fold.

B9: H237-MB529/MRAL-k0 (antibody, mouse IgG1, kappa)
heavy: QVQLQESGPGLVKPSETLSLTCAVSGHSISHDHAWSWVRQPPGEGLEWIGFISYSGITNYNPSLQGRVTISRDNSKNTLYLQMNSLRAEDTAVYYCARSLARTTAMDYWGEGTLVTVSSAKTTPPSVYPLAPGSAAQTNSMVTLGCLVKGYFPEPVTVTWNSGSLSSGVHTFPAVLQSDLYTLSSSVTVPSSTWPSETVTCNVAHPASSTKVDKKIVPRDCGCKPCICQPNEVEEVFIFPPKPKDVLTITLTPKVTCVVVDISKDDPEVQFSWFVDDVEVHTAQTQPREEQFNLTFRSVSELPIMHQDWLNGKEFKCRVNSAAFPAPIERTISKTKGRPKAPQVYTIPPPKEQMAKDKVSLTCMITDFFPEDITVEWQWNGQPAENYKNTQPIMDTDGSYFVYSKLNVQKSNWEAGNTFTCSVLHEGLHNHHTEKSLSHSPGK
light: not shown
notes: copies: 2 + 2
B9: the Kd in assay [1] was 0.745 nM; in assay [2], 47.6 nM. Moreover, in assay [3], the “relative mFcγRIII-binding activity (mIgG1 = 1)” value was 5.9 fold.

In general, Kd refers to the concentration at which binding is half-saturated.
